# Laboratory results published in the DeepSol protein solubility set.
# Assay: soluble on expression in E. coli; label from the status in PepcDB or PDB records
row,Sequence,soluble on expression in E. coli
1,MGSDKIHHHHHHMTRKQFETLDLDNLEQNLQQAAELIAGRIRAIACDPVKQNISFEELAAIIPCDLPDEGHGPEAVIGEVARHIEPYSTRIGHPRFLAWITTSPGPAGTIGDMLCTGLNQAPLSFKGGPAATVLEEIVLGWFAGMFGMPEGWGGTIVSGGTMANLMGLTVARRVHAPQVHARGMQGLERPLVLYVSDQGHMSVTRSAVLLGIGEDNVRAVPSDSACRMIPHELEKAVQQDRRAGRLPFCVVAQAGSVTTGAVDPLPDIAAICRRENMWMHVDAAYGGAVMLADELRPLLAGIELADSVCVDPHKWFFVPLECGITLFRSREQQLETFRAKAAYLGAENPHDLKNTTFILSRANRALKVWFAFRSYGRLRIARIIRRNMELARQLYRLMCDHPEWEPLAPAPLSIVCGRYTPSAAVRGGWTEQQIDDLQLQMIEELERSGTALLTPAAVNGRAGVRVCIANHRTTPEDITLIFNTLTAIGTRIARPDEHETAGE,not soluble
2,MSLNPKKYNGDHLDEKSREIMLKTIEFFENMGKAKLKEKASKREWYADFLEFIKENKIFYTLMTPPEYADGDPNVRWDTWRICDFSELLAFYSLDYWYTWQVTVLGLGPIWMSKNEKIKKEVAELLKNGAVFAFGLSEREHGADIYATETKLVPQPDGTYKAYGRKYYIGNSNVAAIISTFARIADPDGSLPDKPDKSRFAFFALRRDEKYYELIKNIVDAQMFVGDFLIHDYPVTEDDILEKGEEAWDAALNTVNVGKFNLGWASIGICTHAFYEAINHASKRRLYGMYVTDFPHIKRLFVDAYARLMAMKLFARRACDYMRVASREDRRYLLYSAMVKSKVTREGEEVINLLWDVIAAKGFEKDTYFEMAARHIRALPKLEGTVHVNMALILKFLPKYLFEPAEFPEVPKMDVPKHDEFLFNQGPSGGLSQVRFHDYQKVYDSFDFPNINVFKEQIATFKEMCMAAPPSPEQMRDFDFMVTWGEMFALLVYGHLILEAAKIYDVDKDLLEEIFDFMIRDFSKFAVELMAKPSATDKQIEYAKKMIKRPVPDKERFERVVKKVYSYADAYEMNEGHHHHHH,not soluble
3,LFKPNYHFFPITGWMNDPNGLIFWKGKYHMFYQYNPRKPEWGNICWGHAVSDDLVHWRHLPVALYPDDETHGVFSGSAVEKDGKMFLVYTYYRDPTHNKGEKETQCVVMSENGLDFVKYDGNPVISKPPEEGTHAFRDPKVNRSNGEWRMVLGSGKDEKIGRVLLYTSDDLFHWKYEGAIFEDETTKEIDCPDLVRIGEKDILIYSITSTNSVLFSMGELKEGKLNVEKRGLLDHGTDFYAAQTFFGTDRVVVIGWLQSWLRTGLYPTKREGWNGVMSLPRELYVENNELKVKPVDELLALRKRKVFETAKSGTFLLDVKENSYEIVCEFSGEIELRMGNESEEVVITKSRDELIVDTTRSGVSGGEVRKSTVEDEATNRIRAFLDSCSVEFFFNDSIAFSFRIHPENVYNILSVKSNQVKLEVFELENIWL,soluble
4,AFMQDRLKIMRQQNPAASLQHQWVDYEQISSHLKRAVIAAEDARFLQHQGFDYKAIETAWKKNLKQRKWAAGGSTISQQLAKNLFLSTEKTVWRKSRETLITLMLEEFLTKRRILEIYLNIIEWGDGIFGIEAAARHYFGISAASLTPAQAAWLASIIPNPRFYDTRRTLPKLLNKSRIILSRLPAAKIP,not soluble
5,MSLKIKALLLDIDGTMVFKGHAIPGAAEAIEAARMAGLQLRFLTNITGQLPSTIAEDLQRHGINVRAEEIHTASTSCARYLKSLGDVSCFFLMPESVNSMFEGIARDHVSPDVVVIGDIGESFDYACLNQAFGYLHKGARLVVPHKNLFWFDPRGVRLDCGAFILGLEAASGKQALVTGKPSPVFFTSVMDSLGVKPSQTMIIGDDLLTDIAAAQHLEVAHALVLTGKGASYTESDVPRPERLWPSIAELSRFLAQSGHNTEGHHHHHH,soluble
6,VPITPLLHESVARFAATGADITTRAEPDLFVSIDPDHLRRILTAVLDNAITHGDGEIAVTAHARDGAVDIGVRDHGPGFADHFLPVAFDRFTRADTARGGRGSGLGLAIVAALTTTHGGHANATNHPDGGAELRITLPTPRPPFHEELPRITSSDTKDPNREHDTSDQ,not soluble
7,MWQKSALTTVSISLPQQAVYSGMRYEVNISAAKCDGTGVTFGTINNCTITLSLPAGASIITRHFSADL,not soluble
8,MGSDKIHHHHHHMDNLIITPNYVTEFNCVGPACEDSCCKNWTVYFDKKSYKHTISNPAFADLAKIAFVEIKESKENWASIKLDEQGACPFLTQEELCKIHQVGGEAALSYTCKTYPKKDTLVGKDKYQSLSLSCPEAARLVLFDPNAFQFQSHNGGNKKPAKPSPVWLEKSYQYSLDLLINANLDWELALLAIGLLIKTAEDASQYQIPIEELDKRHDQLKRFAESGLMAQQFEKTPYASQLQANLFVTIHSELCKINPRSGKARFGELNLAIEQACNEDNHYSIDLINQAWNQVAQPALKENPDVFERYILYYLFHNHFPGPVTQTPSQSFILLAIDCFMIRCYLSAMALKNNGINQREIILCFQVYQVIRQHRSSFVARLEELVEECGLNSISAVMTLLKTN,not soluble
9,MGSSHHHHHHSSGRENLYFQGHMVIIDNKHYLFIQKLGEGGFSYVDLVEGLHDGHFYALKRILCHEQQDREEAQREADMHRLFNHPNILRLVAYCLRERGAKHEAWLLLPFFKRGTLWNEIERLKDKGNFLTEDQILWLLLGICRGLEAIHAKGYAHRDLKPTNILLGDEGQPVLMDLGSMNQACIHVEGSRQALTLQDWAAQRCTISYRAPELFSVQSHCVIDERTDVWSLGCVLYAMMFGEGPYDMVFQKGDSVALAVQNQLSIPQSPRHSSALWQLLNSMMTVDPHQRPHIPLLLSQLEALQPPAPGQHTTQIL,soluble
10,MGHHHHHHGSTTQRNAQIAMGRKKFNMDPKKGIQFLIENDLLQSSPEDVAQFLYKGEGLNKTVIGDYLGERDDFNIKVLQAFVELHEFADLNLVQALRQFLWSFRLPGEAQKIDRMMEAFASRYCLCNPGVFQSTDTCYVLSFAIIMLNTSLHNHNVRDKPTAERFITMNRGINEGGDLPEELLRNLYESIKNEPFKIPEDDGNDLTHTFFNPDREGWLLKLGGRVKTWKRRWFILTDNCLYYFEYTTDKEPRGIIPLENLSIREVEDPRKPNCFELYNPSHKGQVIKACKTEADGRVVEGNHVVYRISAPSPEEKEEWMKSIKASISRDPFYDMLATRKRRIANKK,soluble
11,MTESSLDLGVIGNCSFGALVDRQARVVWSCLPAFDGDPAFCSLLSPKGEGGDFAVELEDFESSEQHYLPNTAVLRTVLRDSKGGEVEVIDFAPRWRNNGRFYRPVSIIRQIRPLAGNPRIVVRARPLADWGGRLEHHHHHH,not soluble
12,MKTTTQELKQYITRLFQLSNNETWECEALEEAAENILPERFINNSLLAHLTLNTYTYYNDELHELSIYPFLMYANDQLISIGYLDHFDMDFLYLTDTKNTLIDERHLLKQGGNHHELEHHHHHH,soluble
13,MSPSIFPPINFLFQNSALLSSFAAQKALSNGHPSGSSLAALEKLSKAFRRPDLHIEKLASSCIDKQKDLKMTNVVPSRNRYGRPYISGRPLLTCDRQKIVECYKKGMKKIHIAKQLGITHSCVSKVLRR,not soluble
14,MNRRRKLLIPLLFCGAMLTACDDKSAENAAAMTPEVGVVTLSPGSVNVLSELPGRTVPYEVAEIRPQVGGIIIKRNFIEGDKVNQGDSLYQIDPAPLQAELNSAKGSLAKALSTASNARITFNRQASLLKTNYVSRQDYDTARTQLNEAEANVTVAKAAVEQATINLQYANVTSPITGVSGKSSVTVGALVTANQADSLVTVQRLDPIYVDLTQSVQDFLRMKEEVASGQIKQVQGSTPVQLNLENGKRYSQTGTLKFSDPTVDETTGSVTLRAIFPNPNGDLLPGMYVTALVDEGSRQNVLLVPQEGVTHNAQGKATALILDKDDVVQLREIEASKAIGDQWVVTSGLQAGDRVIVSGLQRIRPGIKARAISSSQENASTESKQ,not soluble
15,MRLLPLVAAATAAFLVVACSSPTPPRGVTVVNNFDAKRYLGTWYEIARFDHRFERGLEKVTATYSLRDDGGLNVINKGYNPDRGMWQQSEGKAYFTGAPTRAALKVSFFGPFYGGYNVIALDREYRHALVCGPDRDYLWILSRTPTISDEVKQEMLAVATREGFDVSKFIWVQQPGS,soluble
16,MRKVTAAVMASTLAFSFLSHAAEVVTSDNWHPGDGATQRSAQNHMFDGISLTEHQRQQMRDLMQQARHEQPPVNVSEMETMHRLVTAEKFDESAVRAQAEKMAQEQVARQVEMARVRNQMYRLLTPEQQAVLNEKHQQRMEQLRDVAQWQKSSSLKLLSSSNSRSQLEHHHHHH,not soluble
17,GMSARDVFHEVVKTALKKDGWQITDDPLTISVGGVNLSIDLAAQKLIAAERQGQKIAVEVKSFLKQSSAISEFHTALGQFINYRGALRKVEPDRVLYLAVPLTTYKTFFQLDFPKEIIIENQVKMLVYDVEQEVIFQWIN,soluble
18,MLRATNNRRTSNNVEKDSLQMAKHGNGPLKPVNAQGLQTKREAREILALKPSNPAPVETAQKSQRINLQDAETKCLAMADDIYKYLVHHEKKYLLEECFMEGGEPTPKMRRILVDWLVQVHVRFHLTPETLHLTVFILDRMLQKKVTSKADLQLLGISAMFVASKFEEVYLPDIHDYEFITENTYSKKQILAMEQTILNSLNFDLSCPSSLVFLRCLSRILSENDASPIDNQAFCYTYNISKCLGELALLDSVMASTPRSHIASASMIIALEVHPVDGIEAENAVSVICKQLGASKKVIEDAVALLAEVSYKNFKQGKLVAIKNKYQSSKLAQVSNLMTDDVLEKINRMGQNAKVDASEME,soluble
19,MSNVCIVYSSTHHGNTEKVLNKIKEKFPETVLIKAGDFNPDDFNRYEAIGFASGIFYFKFAKPVDKLFEQALVGSVQKLFFIYTAGAVNAGFEKTLRKKTEQSGKICMGIFGCKGFDTFGPLKLIGGLNKNSPNEKDFKNAIDFFEKNIINALEHHHHHH,soluble
20,MSLSDDIKVLGISGSLRSGSYNSAALQEAIGLVPPGMSIELADISGIPLYNEDVYALGFPPAVERFREQIRAADALLFATPEYNYSMAGVLKNAIDWASRPPEQPFSGKPAAILGASAGRFGTARAQYHLRQTLVFLDVHPLNKPEVMISSAQNAFDAQGRLLDDKARELIQQQLQALQLWVREGGSHHHHHH,soluble
21,MISATYRLQLNKNFNFGDVIDNLWYFKDLGVSHLYLSPVLMASPGSNHGYDVIDHSRINDELGGEKEYRRLIETAHTIGLGIIQDIVPNHMAVNSLNWRLMDVLKMGKKSKYYTYFDFFPEDDKIRLPILGEDLDTVISKGLLKIVKDGDEYFLEYFKWKLPLTEVGNDIYDTLQKQNYTLMSWKNPPSYRRFFDVNTLIGVNVEKDHVFQESHSKILDLDVDGYRIDHIDGLYDPEKYINDLRSIIKNKIIIVEKILGFQEELKLNSDGTTGYDFLNYSNLLFNFNQEIMDSIYENFTAEKISISESIKKIKAQIIDELFSYEVKRLASQLGISYDILRDYLSCIDVYRTYANQIVKECDKTNEIEEATKRNPEAYTKLQQYMPAVYAKAYEDTFLFRYNRLISINEVGSDLRYYKISPDQFHVFNQKRRGKITLNATSTHDTKFSEDVRMKISVLSEFPEEWKNKVEEWHSIINPKVSRNDEYRYYQVLVGSFYEGFSNDFKERIKQHMIKSVREAKINTSWRNQNKEYENRVMELVEETFTNKDFIKSFMKFESKIRRIGMIKSLSLVALKIMSAGIPDFYQGTEIWRYLLTDPDNRVPVDFKKLHEILEKSKKFEKNMLESMDDGRIKMYLTYKLLSLRKQLAEDFLKGEYKGLDLEEGLCGFIRFNKILVIIKTKGSVNYKLKLEEGAIYTDVLTGEEIKKEVQINELPRILVRM,soluble
